Experimental data as given in patent US20230234991A1, “SELF-ASSEMBLED PEPTIDE NANORODS AND USES THEREOF” (TRANSFERT PLUS, SOCIÉTÉ EN COMMANDITE, priority 2020, published 2023).
“And” between values parts separate entries of the source, which are not always exact repeats. Equal entries are not always repeated. “Also recorded” adds a separate entry of the source.

Experiments:
[1] = Atomic force microscopy of the assemblies; format: physicochemical
Zeta potential = format: physicochemical
[2] = Negative-stain transmission electron microscopy of the assemblies; format: physicochemical
TLR2 = target: T1, TLR2 (Mus musculus, UniProt Q9QUN7); test: TLR-2 stimulation, SEAP activity in HEK-Blue mTLR2 cells; format: cell-based; conditions: HEK-Blue mTLR2 cells, 16 h
T1 construct: host or cells: HEK293 (HEK-Blue mTLR2)
Procedure: TLR-2 stimulation. HEK293 cells stably co-transfected with mTLR2 and SEAP (HEK-Blue mTLR2 cells, InvivoGen) were cultivated in Dulbecco's Modified Eagle's Medium supplemented with 4.5 g/I glucose, 10% (v/v) fetal bovine serum, 100 U/ml penicillin, […], […], 2 mM L-glutamine. At 50-80% confluency, cells were seeded in Hek-Blue detection medium (InvivoGen) at a density of 50,000 cells/well in a 96-well plate containing NRs and controls. After 16 h incubation at 37° C. in 5% CO2, absorbance was monitored at 630 nm.

[3] = Thermal denaturation monitored by CD spectroscopy; format: physicochemical; conditions: CD at 222, 212 and 205 nm
[4] = system: dendritic-like cells (DC2.4)
[5] = system: macrophage cells (J774A.1)
INS-1E cells = format: cell-based, Rat; conditions: 24 h, 50×10^−6 m

T1 sequence (Q9QUN7 25-784): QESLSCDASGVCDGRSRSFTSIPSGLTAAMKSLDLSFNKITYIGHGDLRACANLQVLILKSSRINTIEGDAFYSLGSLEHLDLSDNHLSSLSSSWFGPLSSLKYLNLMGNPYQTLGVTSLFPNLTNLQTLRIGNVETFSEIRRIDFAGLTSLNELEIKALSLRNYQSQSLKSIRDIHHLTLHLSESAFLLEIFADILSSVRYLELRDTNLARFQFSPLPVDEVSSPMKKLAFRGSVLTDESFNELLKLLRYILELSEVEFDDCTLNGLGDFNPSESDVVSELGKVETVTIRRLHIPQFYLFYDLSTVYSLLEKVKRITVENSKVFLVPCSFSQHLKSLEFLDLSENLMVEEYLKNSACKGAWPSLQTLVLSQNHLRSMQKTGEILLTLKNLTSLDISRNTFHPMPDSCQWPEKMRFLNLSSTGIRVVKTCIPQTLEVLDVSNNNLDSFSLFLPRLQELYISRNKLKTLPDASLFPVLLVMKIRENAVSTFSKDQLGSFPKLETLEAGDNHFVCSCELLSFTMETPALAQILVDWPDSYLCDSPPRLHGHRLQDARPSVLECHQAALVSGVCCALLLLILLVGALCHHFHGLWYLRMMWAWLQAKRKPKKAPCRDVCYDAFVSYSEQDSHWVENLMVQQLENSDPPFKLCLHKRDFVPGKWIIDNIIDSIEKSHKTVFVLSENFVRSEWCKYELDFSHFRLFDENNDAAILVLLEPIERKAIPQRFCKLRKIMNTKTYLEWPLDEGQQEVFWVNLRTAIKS

Ac-KGSGSSNNFGAILSS-NH2 [Ac-KI10]
Heigth [1]: 7.0 nm and 7.0 ± 0.7 nm | Surface charge (Zeta potential): 49 ± 5 mV | Morphology ([2]; pH 7.4): rope-like fibrils; also recorded: thick rope-like

HGSGSSNNFGAILSS [HI10]
Morphology of variants of the KI10 sequence [1]: do not adopt a short-like rod confirmation

Pam2CSK4
SEAP activity (TLR2): SEAP activity was measured

islet amyloid polypeptide (KCNTATCATQRLANFLVHSSNNFGAILSSTNVGSNTY; Islet amyloid polypeptide; UniProt P10997 34-70, looked up) [IAPP, amyloidogenic peptide used as classical amyloid and positive control of cytotoxicity]
Thermal denaturation [3]: no melt observed | Cytotoxicity [4]: high decrease of viability | calcein-AM/ethidium homodimer-1 staining (HEK293T cells): increase of ethidium homodimer-1 and a decrease of calcein-AM staining | Morphology ([2]; Tris 50×10^−3 M pH 7.4, rotary agitation 48 h, 150×10^−6 M (KKI10 500×10^−6 M)): polymorphic twisted ribbons and fibrils | Cytotoxicity [5]: high decrease of viability | calcein-AM/ethidium homodimer-1 staining (INS-1E cells): increase of ethidium homodimer-1 and a decrease of calcein-AM staining

RGSGSSNNFGAILSS [RI10]
Morphology of variants of the KI10 sequence [1]: do not adopt a short-like rod confirmation
